Our source for the STAT3 activation, Erk1/2 activation and IL-22R1 phosphorylation induced values is paper PMC5421877, “SOCS3 inhibits the pathological effects of IL-22 in non-melanoma skin tumor-derived keratinocytes” (Oncotarget, 2017).

What all share (assay type): cell-based, human
Experiment [1] has as its system STAT3 phosphorylation in healthy keratinocytes. The experiment in a line: Western blot of STAT3 phosphorylation in healthy keratinocytes (IL-22). The settings on record: IL-22 time course, no peptide, n = 3. The protocol: (§1) Figure 5 KIR-ESS peptide inhibits IL-22-induced phosphorylation of STAT3 and Erk in healthy and SCC-derived keratinocytes (A) Protein extracts obtained from healthy keratinocytes (n = 3) pre-treated or not with 15 μM (left panel) or 75 μM (right panel), KIR, KIR-ESS and control (Ctrl1 or Ctrl2) peptides, and, then, […], were subjected to WB analysis to detect STAT3 (Tyr705), Erk and MEK phosphorylation. Filters were probed with anti-STAT3, -Erk and –MEK Abs (top). (B) Protein extracts obtained from healthy keratinocytes (n = 3) pre-treated or not with 75 μM KIR-ESS and control (Ctrl1) peptides, and, then, stimulated or not with IL-22 for 10 min, were subjected to immunoprecipitation for IL-22R1 and Jak1, and then analysed by WB to detect phosphorylated and unphosphorylated forms of the proteins. (C) Unphosphorylated and phosphorylated forms of STAT1 (Tyr701) and STAT3 (Tyr705) were monitored in keratinocytes treated with IFN-γ for 15 min by WB analysis (bottom). In all experimental groups, filters were stripped and re-probed with β-actin Ab. (D) Protein extracts were obtained from CAL27 (left panel) or CAL33 (right panel) lines treated or not with 75 μM peptides in presence of IL-22 or IFN-γ. WB was performed to detect basal and phosphorylated STAT1, STAT3 and Erk. D.I. ratio indicates the densitometric intensity of phosphorylated/unphosphorylated target protein. […]
Background: A western blot detects proteins with antibodies after separation by electrophoresis.

Experiment [2] has as its system Erk1/2 phosphorylation in healthy keratinocytes. Description: Western blot of Erk1/2 phosphorylation in healthy keratinocytes (IL-22). As to conditions: IL-22 time course, no peptide, n = 3. The protocol: as §1
Another experiment concerns IL-22R1 phosphorylation. Description: IP/WB of IL-22R1 phosphorylation in healthy keratinocytes (IL-22). As to conditions: IL-22 10 min, no peptide, n = 3. As for the experimental part: Figure 5 KIR-ESS peptide inhibits IL-22-induced phosphorylation of STAT3 and Erk in healthy and SCC-derived keratinocytes (A) Protein extracts obtained from healthy keratinocytes (n = 3) pre-treated or not with 15 μM (left panel) or 75 μM (right panel), KIR, KIR-ESS and control (Ctrl1 or Ctrl2) peptides, and, then, stimulated or not with IL-22 for 20 min, were subjected to WB analysis to detect STAT3 (Tyr705), Erk and MEK phosphorylation. Filters were probed with anti-STAT3, -Erk and –MEK Abs (top). (B) Protein extracts obtained from healthy keratinocytes (n = 3) pre-treated or not with 75 μM KIR-ESS and control (Ctrl1) peptides, and, then, stimulated or not with IL-22 for 10 min, were subjected to immunoprecipitation for IL-22R1 and Jak1, and then analysed by WB to detect phosphorylated and unphosphorylated forms of the proteins. (C) Unphosphorylated and phosphorylated forms of STAT1 (Tyr701) and STAT3 (Tyr705) were monitored in keratinocytes treated with IFN-γ for 15 min by WB analysis (bottom). In all experimental groups, filters were stripped and re-probed with β-actin Ab. (D) Protein extracts were obtained from CAL27 (left panel) or CAL33 (right panel) lines treated or not with 75 μM peptides in presence of IL-22 or IFN-γ. WB was performed to detect basal and phosphorylated STAT1, STAT3 and Erk. […]

B1: IL-22: cytokine stimulus, R&D Systems (protein, UniProt Q9GZX6 34-179, looked up)
Interleukin-22: APISSHCRLDKSNFQQPYITNRTFMLAKEASLADNNTDVRLIGEKLFHGVSMSERCYLMKQVLNFTLEEVLFPQSDRFQPYMQEVVPFLARLSNRLSTCHIEGDDLHIQRNVQKLKDTVKKLGESGEIKAIGELDLLFMSLRNACI
Consider B1, for which, in experiment [1], the STAT3 activation result is “culminated with STAT3, MEK1/2 and Erk1/2 activation”. Also, the Erk1/2 activation result in experiment [2] was “culminated with STAT3, MEK1/2 and Erk1/2 activation”. In addition, in the experiment on IL-22R1 phosphorylation, the IL-22R1 phosphorylation induced entry is “induced molecular cascade implicating phosphorylation of IL-22R1, Tyk2 and Jak1”.
